Experimental data as given in patent publication CN117700537A.

Target: 非洲马瘟病毒VP7重组蛋白 (AHSV VP7重组蛋白, 原核表达) (African horse sickness virus (非洲马瘟病毒))
Assay: indirect ELISA, negative control on coated VP7 recombinant protein (0.5 μg/mL)

阴性对照 (阴性抗体, 表2) (antibody)
OD450: 0.0655 OD450
